Data as given in paper PMC5036006.

Assays:
Assay in all cases: co-immunoprecipitation from transfected HEK293T
Conditions in all cases: reference: wild-type parafibromin; sites Y290,Y293,Y315
β-catenin = β-catenin (UniProt P35222)
[1] = molecular target: Notch intracellular domain (NICD) intracellular domain, 1744-2183 (UniProt Q01705)
Gli1 = Gli1 (UniProt P08151)

Measured: binding against the reference

parafibromin (from UniProt Q6P1J9) PR-parafibromin Y290/293/315F
stronger: all assays above
